Data on 20 molecules can be found in PMC3280250, “Functional Redundancy of Two Pax-Like Proteins in Transcriptional Activation of Cyst Wall Protein Genes in Giardia lamblia”.

T1: Pax2m3 (Giardia lamblia, UniProt A8B733 1-171, del172-302)
T1 sequence: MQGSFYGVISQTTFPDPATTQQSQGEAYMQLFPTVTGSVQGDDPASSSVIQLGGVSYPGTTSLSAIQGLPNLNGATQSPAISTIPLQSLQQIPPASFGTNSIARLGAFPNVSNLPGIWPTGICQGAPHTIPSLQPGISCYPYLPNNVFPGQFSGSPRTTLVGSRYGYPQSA

T2: Pax2 (Giardia lamblia, UniProt A8B733 1-302)
T2 sequence: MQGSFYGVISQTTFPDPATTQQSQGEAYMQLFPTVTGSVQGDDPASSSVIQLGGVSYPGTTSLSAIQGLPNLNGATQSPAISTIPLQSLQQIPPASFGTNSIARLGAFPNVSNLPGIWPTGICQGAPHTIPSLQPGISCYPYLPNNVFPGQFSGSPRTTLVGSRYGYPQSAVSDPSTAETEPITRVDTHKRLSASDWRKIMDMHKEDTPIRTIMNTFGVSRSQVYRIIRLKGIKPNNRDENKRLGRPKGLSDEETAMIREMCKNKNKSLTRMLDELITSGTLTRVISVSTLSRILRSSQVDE

B1: cwp1-45/-1 (dsDNA)
DNA 1: GTTTACAACTCTCAGATCAAGAAACACAGAAATAAAATATCAGGG
DNA 2: CCCTGATATTTTATTTCTGTGTTTCTTGATCTGAGAGTTGTAAAC
B2: ran-51/-20 (dsDNA)
DNA 1: TAAAATAAATTAAATCGAAATTAAAACTTTAA
DNA 2: TTAAAGTTTTAATTTCGATTTAATTTATTTTA
B3: cwp2-30/+8 (dsDNA)
DNA 1: CAGCAGCTCAACAGTGGCTGGGAAAATAAAATGATCGC
DNA 2: GCGATCATTTTATTTTCCCAGCCACTGTTGAGCTGCTG
B4: cwp3-30/+10 (dsDNA)
DNA 1: GTCTTTCCCAAAAAATAAGTTACTACTGATATGTTTTCTC
DNA 2: GAGAAAACATATCAGTAGTAACTTATTTTTTGGGAAAGAC
B5: ran-30/-1 (dsDNA)
DNA 1: TAAAACTTTAACCCAGGAACCGAGAGTAGC
DNA 2: GCTACTCTCGGTTCCTGGGTTAAAGTTTTA
B6: cwp1-90/-46 (dsDNA)
DNA 1: CTGGCTAACAGTCTACAGTCTACAATTTACAGTATACAATCTACA
DNA 2: TGTAGATTGTATACTGTAAATTGTAGACTGTAGACTGTTAGCCAG
B7: poly(A) with T insertion (dsDNA)
DNA 1: AAAAAAAAAAATAAAAAAAAAAA
DNA 2: TTTTTTTTTTTATTTTTTTTTTT
B8: poly(A) with TT insertion (dsDNA)
DNA 1: AAAAAAAAAAATTAAAAAAAAAA
DNA 2: TTTTTTTTTTAATTTTTTTTTTT
B9: poly(A) with TTT insertion (dsDNA)
DNA 1: AAAAAAAAAATTTAAAAAAAAAA
DNA 2: TTTTTTTTTTAAATTTTTTTTTT
B10: cwp2-60/-31 (dsDNA)
DNA 1: TAGACTGATGCTGTAGAGGTCAACAGATAA
DNA 2: TTATCTGTTGACCTCTACAGCATCAGTCTA
B11: poly(A) with TC insertion (dsDNA)
DNA 1: AAAAAAAAAAATCAAAAAAAAAA
DNA 2: TTTTTTTTTTGATTTTTTTTTTT
B12: ran-81/-52 (dsDNA)
DNA 1: CAGAAAAAGTTGTCAAGGAGGTGATAGCCG
DNA 2: CGGCTATCACCTCCTTGACAACTTTTTCTG
B13: myb2-60/-31 (dsDNA)
DNA 1: TGGCTATGTATTTTTTCTTCTTCTACAGCT
DNA 2: AGCTGTAGAAGAAGAAAAAATACATAGCCA
B14: poly(A) (dsDNA)
DNA 1: AAAAAAAAAAAAAAAAAAAAAAA
DNA 2: TTTTTTTTTTTTTTTTTTTTTTT
B15: cwp1-90/-69 (dsDNA)
DNA 1: CTGGCTAACAGTCTACAGTCTA
DNA 2: TAGACTGTAGACTGTTAGCCAG
B16: cwp1-45/-1m5 (dsDNA)
DNA 1: B1 DNA 1 with C25G, A26G, C27G
DNA 2: B1 DNA 2 with G19C, T20C, G21C
B17: cwp1-45/-1m11 (dsDNA)
DNA 1: B1 DNA 1 with T33A, T38A, T40A
DNA 2: B1 DNA 2 with A6T, A8T, A13T
B18: cwp1-45/-1m9 (dsDNA)
DNA 1: B1 DNA 1 with T40C, C41G, A42G
DNA 2: B1 DNA 2 with T4C, G5C, A6G
B19: cwp1-45/-1m4 (dsDNA)
DNA 1: GTTTACAACTCTCAGATCGGCGGGCACAGAAATAAAATATCAGGG
DNA 2: CCCTGATATTTTATTTCTGTGCCCGCCGATCTGAGAGTTGTAAAC

Where a chain is given by its changes, count along the chain named.

For one data set, the target named is T1, Pax2m3. Description: EMSA; EMSA: 0.02 pmol 5'-32P probe, 5 ng protein, 20 ul, 0.5 ug poly(dI-dC), 15 min at room temperature, 6% acrylamide gel; buffer, salt and pH only by reference [31]. Particulars: protein: recombinant; tags: C-terminal V5-His (pET101/D-TOPO); label: 5'-32P. (Mobility shift assays separate free from complexed probe on a gel.)
As to B1, the binding result is “no binding”.

With B2, the binding result is on record as “no binding”.

As to B3, the binding result is “no binding”.

For B4, the binding result is listed as “no binding”.

The next data set addresses T2, Pax2. The description is as above. Particulars: protein: recombinant; tags: C-terminal V5-His (pET101/D-TOPO).
Regarding GTTTACAACTCTCAGATCAAGAAACACAGAAATAAAATATCAGGG (ssDNA) [cwp1-45/-1 single strand 1], the binding result is “no binding”.

Take B5: the binding result is “no binding”.

Still in this data set, the particulars now being: protein: recombinant; tags: C-terminal V5-His (pET101/D-TOPO); label: 5'-32P.
Regarding B6, the binding result is on record as “binds”.

With B2, the binding result is “binds”.

Regarding B7, the binding result is on record as “binds”.

For the molecule B8, the binding result is “binds”.

In the case of B9, the binding result is on record as “binds”.

As for B10, the binding result is on record as “no binding”.

Consider B11, for which the binding result is “binds”.

In the case of B12, the binding result is recorded as “no binding”.

B13: the binding result is listed as “no binding”.

For B14, the binding result is recorded as “binds”.

Regarding B15, the binding result is given as “no binding”.

The next data set has as its target T2, Pax2. Description: EMSA; unchanged; EMSA: 0.02 pmol 5'-32P probe, 5 ng protein, 20 ul, 0.5 ug poly(dI-dC), 15 min at room temperature, 6% acrylamide gel; buffer, salt and pH only by reference [31]. The note with it: protein: recombinant; tags: C-terminal V5-His (pET101/D-TOPO); label: 5'-32P.
As for B16, the binding result is “binds”.

For B17, the binding result was “binds”.

As for B18, the binding result is “binds”.

On to B19, for which the binding result is recorded as “binds”.

A further data set deals with T2, Pax2. Description: EMSA; strong binding; EMSA: 0.02 pmol 5'-32P probe, 5 ng protein, 20 ul, 0.5 ug poly(dI-dC), 15 min at room temperature, 6% acrylamide gel; buffer, salt and pH only by reference [31]. Particulars: protein: recombinant; tags: C-terminal V5-His (pET101/D-TOPO); label: 5'-32P.
B4: the binding result is “binds”.

The target in another data set is T2, Pax2. Put plainly: EMSA; self-competition and anti-V5 supershift assay confirm specificity; EMSA: 0.02 pmol 5'-32P probe, 5 ng protein, 20 ul, 0.5 ug poly(dI-dC), 15 min at room temperature, 6% acrylamide gel; buffer, salt and pH only by reference [31]. The note with it: protein: recombinant; tags: C-terminal V5-His (pET101/D-TOPO); label: 5'-32P.
As to B1, the binding result is reported as “binds”.
